The source of these data is publication PMC8500521.

In test [1] the target is 6HB (HR1-linker-HR2) of SARS-CoV-2 fusion protein (SARS-CoV-2) (UniProt P0DTC2). As to the kind of experiment: SEC-MALS; Superose-12, room temperature, 20 mM sodium phosphate pH 6.0, 30 mM NaCl; injected 65 uM 6HB, 90 uM HR1. For orientation: SEC sorts molecules by how far they enter the pores of the column.
The target is the same in test [2]. As to the kind of experiment: AUC; sedimentation velocity, 50,000 rpm, 20 C, 50 mM NaCl, 25 mM sodium phosphate pH 6.0, no detergent; monomer to tetramer.
The target of test [3] is HR1 (heptad repeat 1) domain of SARS-CoV-2 spike protein (SARS-CoV-2) (UniProt P0DTC2). The description is as above.

Turning to “6HB (HR1-linker-HR2) of SARS-CoV-2 fusion protein (from UniProt P0DTC2 918-965; P0DTC2 1171-1207)”, the stoichiometry N in test [1] and in test [2] was 3 each time. In test [3], “HR1 (heptad repeat 1) domain of SARS-CoV-2 spike protein (from UniProt P0DTC2 918-965) (domain or fragment)” returned a stoichiometry N of 4.

A word on the stoichiometry N: it is a count of units in the complex or per binding partner.
